Assay results as given in patent US20260250341A1.
Positions count from the first letter of the chain named. Names and notes keep the numbering of the source.

B1: FGF320 (FGF1 + FGF2-CHIMERA_Pig) (ligand)
chain: MANYKKPKLLYCSNGGHFLRIHPDGRVDGVREKSDPHIKLQLQAEERGVVSIKGVCANRYLAMDTSGLLYGSQTPSEECLFLERLEENHYNTYTSKKHAEKNWFVGLKKNGSCKRGPRTHYGQKAILFLPLPV
B2: FGF323 (FGF1 + FGF2-CHIMERA_Pig_C12S; Q43I; A62C; H89G; C113A) (ligand)
chain: B1 chain with C12S, Q43I, A62C, H89G, C113A

Assays:
[1] = molecular target: Recombinant Human FGFR1 alpha (IIIc) Fc Chimera Protein (R&D systems, 658-FR-050) (human) (UniProt P11362); experiment: ELISA: FGFR1-Fc coated at 0.5 ug/ml, FGF sample at 80 ng/ml, biotinylated anti-FGF antibody BAM233 and streptavidin-HRP, blank subtracted; sample kept 24 h at 37 C
Chain of Recombinant Human FGFR1 alpha (IIIc) Fc Chimera Protein (R&D systems, 658-FR-050) (human) (P11362 22-376, change not shown): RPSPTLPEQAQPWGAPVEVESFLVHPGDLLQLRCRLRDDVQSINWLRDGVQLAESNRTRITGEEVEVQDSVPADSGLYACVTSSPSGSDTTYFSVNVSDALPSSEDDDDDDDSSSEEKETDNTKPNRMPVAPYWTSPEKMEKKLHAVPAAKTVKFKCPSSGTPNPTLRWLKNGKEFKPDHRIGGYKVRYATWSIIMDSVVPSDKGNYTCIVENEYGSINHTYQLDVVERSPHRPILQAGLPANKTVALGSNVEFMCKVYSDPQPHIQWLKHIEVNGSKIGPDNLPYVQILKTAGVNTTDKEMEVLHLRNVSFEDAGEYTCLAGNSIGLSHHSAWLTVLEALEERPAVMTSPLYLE

[2] = molecular target: Recombinant Human FGFR1 alpha (IIIc) Fc Chimera Protein (R&D systems, 658-FR-050) (human) (UniProt P11362); experiment: ELISA: FGFR1-Fc coated at 0.5 ug/ml, FGF sample at 80 ng/ml, biotinylated anti-FGF antibody BAM233 and streptavidin-HRP, blank subtracted; sample kept 0 h at 37 C
[3] = molecular target: Recombinant Human FGFR1 alpha (IIIc) Fc Chimera Protein (R&D systems, 658-FR-050) (human) (UniProt P11362); experiment: ELISA: FGFR1-Fc coated at 0.5 ug/ml, FGF sample at 80 ng/ml, biotinylated anti-FGF antibody BAM233 and streptavidin-HRP, blank subtracted; sample kept 6 h at 37 C
[4] = molecular target: Recombinant Human FGFR1 alpha (IIIc) Fc Chimera Protein (R&D systems, 658-FR-050) (human) (UniProt P11362); experiment: ELISA: FGFR1-Fc coated at 0.5 ug/ml, FGF sample at 80 ng/ml, biotinylated anti-FGF antibody BAM233 and streptavidin-HRP, blank subtracted; sample kept 48 h at 37 C

Binder | Absorbance (450 nm) (absorbance (450 nm)) [1] | Absorbance (450 nm) (absorbance (450 nm)) [2] | Absorbance (450 nm) (absorbance (450 nm)) [3] | Absorbance (450 nm) (absorbance (450 nm)) [4]
B1 | 0.7 | 2.1 | 0.9 | 0.6
B2 | 2.3 | 2.5 | 2.4 | 2.3
